Fraction of dimeric cFOF1 (model with F1/F1 dimers) and stoichiometry N data for one substance are collected here from PMC10341776.

The assay has as its target chloroplast FOF1-ATP synthase from spinach chloroplasts (spinach (Spinacia oleracea)) (UniProt P06450). As to the kind of experiment: SAXS; AEX-purified cFOF1 dialysed overnight against 30 mM HEPES, 2 mM MgCl2, 0.04% (w/v) tPCC-α-M, 450 mM NaCl; room temperature; fit with a mixture of monomers and docked dimers (OLIGOMER); monomer to dimer.

As for “chloroplast FOF1-ATP synthase from spinach chloroplasts, P06450 1-507; P00825 1-498; P05435 42-364; P00833 1-134; P11402 71-257; P06451 1-247; P06453 1-184; P31853 76-222; P69447 1-81”, the fraction of dimeric cFOF1 (model with F1/F1 dimers) worked out at 68% and the stoichiometry N was 2.

What is called stoichiometry N is a count of units in the complex or per binding partner.
